In patent US20220168331A1, “PRR-Activating and MicroRNA-Inhibiting Molecules and Methods of Using Same” (Duke University, priority 2019, published 2022):
“Also recorded” adds a separate entry of the source.

Tests used:
[1] = tested on: B16-F0 mouse melanoma cells; assay: Cytotoxicity (MTT assay) in B16-F0 cells; assay type: cell-based; conditions: two transfections at various concentrations, DharmaFECT, MTT three days after first transfection
Protocol: (§1) B16-F0 and B16-F10 mouse melanoma cells lines are originated from the same parental cell line but they have different metastatic ability. B16-F0 cell line has no or marginal metastatic ability but B16-F10 cell line has potent metastatic ability. B16-F0 and B16-F10 cells (1×10^4) were treated with RIG-I agonist ICR4-liposome complex (0.6 μg/ml). After overnight incubation, cytotoxicity and IFN-β production by the cells were measured using MTT assay and ELISA, respectively. […] Tumor suppressor proteins, such as programmed cell death 4 (PDCD4) and phosphatase and tensin homolog (PTEN), and pre-miR-21 levels in B16-F0 and B16-F10 cells were measured using real-time qPCR. […] It was hypothisized that miR-21 would interfere with antitumor effects of RIG-I agonists in B16-F10 melanoma cells.
B16-F0 mouse melanoma cells were transfected with ICR4, RigantmiR-21, mutant RigantmiR-21, or anti-miR-21 at various concentrations using DharmaFECT (DF). After overnight incubation, the cells were replenished with fresh culture media, followed by another transfection with the same dose of RNAs. Three days after the first transfection, cytotoxicity levels were measured using MTT assay.

[2] = tested on: B16-F0 mouse melanoma cells; assay: IFN-β production (ELISA) by B16-F0 cells; assay type: cell-based; conditions: 12.5 nM, DharmaFECT, one day after first and second transfection, ELISA
Protocol: as §1
B16-F0 mouse melanoma cells were transfected with ICR4, RigantmiR-21, mutant RigantmiR-21, or anti-miR-21 at 12.5 nM using DharmaFECT (DF). After overnight incubation, the cells were replenished with fresh culture media, followed by another transfection with the same dose of RNAs. One day after the first and second transfection, IFN-β production by these cells were determined using ELSIA.
B16-F0 mouse melanoma cells or bone marrow-derived dendritic cells (BM-DCs) were transfected once (x1) or twice (x2) with a complex of polyI:C (pIC) (0.6 μg/ml) and transfection agent jet-PEI. IFN-β production by the cells one day after each transfection was determined using ELISA.

[3] = tested on: B16-F10 mouse melanoma cells; assay: IFN-β production (ELISA) by B16-F10 cells; assay type: cell-based; conditions: transfected once or twice, 0.6 μg/ml, DharmaFECT, ELISA
Protocol: as §1
(§2) To improve therapeutic effects of RIG-I agonists in B16-F10 cells, we designed and generated a novel RIG-I-activating RNA molecule (named RigantmiR-21) that is composed of a RIG-I-activating RNA structure (ICR4: 5′ppp-containg double stem-loop RNA) and a complementary sequence to mature miR-21. B16-F10 melanoma cells were transfected once or twice with RigantmiR-21, mutant RigantmiR-21, anti-miR-21, or ICR4 (0.6 μg/ml) using liposomal transfection agent DharmaFECT (DF). The expression of miR-21 target genes was determined using qPCR. IFN-β production was determined using ELISA. […] Anti-miR-21, ICR4, and RigantmiR-21 RNAs were complexed with in vivo transfection agent jet-PEI. Jet-PEI alone or RNA-jet-PEI complexes (25 μg) were injected thrice intratumorally into B16-F10 melanoma-bearing immunocompetent mice. (n=6).
Additionally, conjugation of anti-miR-21 improved the ability of other types of RIG-I agonists, such as ICR2 and ICR2AS^4 (sequences shown in FIG. 6A) to induce IFN-β production by cancer cells.

[4] = tested on: miR-21; assay: Expression of premiR-21 and miR-21 target genes (qPCR) in B16-F10 melanoma cells; assay type: cell-based, mouse; conditions: 0.6 μg/ml, DharmaFECT
Protocol: as §2

[5] = tested on: B16-F10 melanoma; assay: Survival of B16-F10 melanoma-bearing immunocompetent mice after intratumoral RNA-jet-PEI injections; assay type: in vivo, mouse; conditions: RNA-jet-PEI complexes 25 μg injected thrice intratumorally
Protocol: as §2

[6] = tested on: KPC-4839 (mouse pancreatic ductal adenocarcinoma); assay: IFN-β production and cell death in KPC-4839 cells; assay type: cell-based; conditions: 0.6 μg/ml, DharmaFECT
Protocol: (§3) The antitumor effects of RigantmiR-21 are not limited to melanoma cells. KPC-4839 (mouse pancreatic ductal adenocarcinoma), PANC-02 (mouse pancreatic adenocarcinoma) and mouse sarcoma cell line cells were transfected with indicated ICR4, RigantmiR-21, mutant RigantmiR-21, or anti-miR-21 (0.6 μg/ml) using DharmaFECT (DF). After overnight incubation, IFN-β production by these cells was determined using ELSIA. (n=3). As shown in FIGS. 4A-4C, RigantmiR-21 treatments induced cell death and IFN-β production by mouse pancreatic, adenocarcinoma, and sarcoma cells that are also resistant to RIG-I agonist ICR4.

[7] = tested on: PANC-02 (mouse pancreatic adenocarcinoma); assay: IFN-β production and cell death in PANC-02 cells; assay type: cell-based; conditions: 0.6 μg/ml, DharmaFECT
Protocol: as §3

[8] = tested on: mouse sarcoma cell line cells; assay: IFN-β production and cell death in mouse sarcoma cell line; assay type: cell-based; conditions: 0.6 μg/ml, DharmaFECT
Protocol: as §3

[9] = tested on: mouse pancreatic, adenocarcinoma, and sarcoma cells; assay: Antitumor activities in mouse pancreatic cancer and sarcoma cells (overall statements); assay type: cell-based
Protocol: as §3

[10] = tested on: Mouse macrophage cells; assay: IFN-β production by macrophages re-treated with PRR agonists with or without 1-MT and CH223191; assay type: cell-based; conditions: re-treatment with the same agonist in presence of mixture of 1-MT and CH223191; FIG. 10
Protocol: Mouse macrophage cells were treated with MDA5 agonists (pIC-HMW and pIC-LMW), RIG-I agonists (ICR4 and RigantmiR-21), and STING agonists (2′3′-cGAMP and c-di-GMP). After overnight incubation, the cells were replenished with fresh culture media and treated with the same agonists in the presence or absence of a mixture of 1-MT and CH223191. (n=3).

[11] = tested on: 4T1 mouse breast cancer cells, B16-F10 mouse melanoma cells, 403688 mouse sarcoma cells, and WM266.4 human melanoma cells; assay: IFN-β production (ELISA) by different cancer cells after first and second transfection with RIG-I agonists; assay type: cell-based; conditions: DharmaFECT, one day after first and second transfection; FIG. 11
Protocol: 4T1 mouse breast cancer cells, B16-F10 mouse melanoma cells, 403688 mouse sarcoma cells, and WM266.4 human melanoma cells were transfected with indicated RIG-I agonists using liposomal transfection agent DharmaFECT (DF). After overnight incubation, the cells was replenished with fresh culture media, followed by another transfection with the same RIG-I agonists. One day after first and second transfection IFN-β production by these cells were determined using ELSIA.

[12] = tested on: 402230 sarcoma; assay: Survival of 402230 sarcoma-bearing immunocompetent mice; assay type: in vivo, mouse; conditions: RigantmiR-21 1 mg/kg with jetPEI intratumorally once daily for three days, anti-PD-1 intraperitoneally twice at 7-day interval
Protocol: Murine sarcoma 402230 cell line was treated single with RigantmiR-21 ([…]) in complex with liposome. IFN-β production 24 h after treatment (FIG. 12A) and cytotoxicity 72 h after treatment (FIG. 12B) were measured using ELISA and MTT assay, respectively. N=3. 402230 sarcoma-bearing immunocompetent mice were injected intratumorally once daily for three days with RigantmiR-21 (1 mg/kg) in complex with in vivo transfection agent jetPEI, N=5. (FIG. 12C). Sarcoma-bearing mice were also injected intraperitoneally twice at 7-day interval with anti-PD-1. jetPEI alone and jetPEI with isotype control antibody were used as control.

B1: RigantmiR-21: nuclease-resistant RNA composed of RIG-I-activating structure ICR4 and a complementary sequence to mature miR-21; SEQ ID NO: 2 (nucleic acid)
chain: GGAUGCGGUACCUGACAGCAUCUUGAAAUAAGGACUGAUGCUCAACAUCAGUCUGAUAAGCUA
modifications: nuclease-resistant RNA, modifications not given here
For B1, the “cytotoxic effects after repeated treatments” value [1] was “gradually augmented; also recorded: significantly increased”, the “IFN-β production after first and second transfection” value [2] was “incremental; also recorded: significantly increased” and the “IFN-β production after first and second transfection” value ([2]; listed as RignatmiR-21) was “gradually increase”. The “IFN-β production compared to ICR4 and mutant RigantmiR-21” value [3] was “significantly increased”, the “expression of premiR-21” value [4] was “inhibited” and the “miR-21 target gene (PTEN) expression” value [4] was “upregulated”. For the same molecule, the “survival compared to repeated injections with ICR4 or anti-miR-21” value [5] was “significantly improved the survival”, the cell death [6] was “induced” and the IFN-β production ([6]; overnight, ELISA) was “induced”. For the same molecule, the cell death [7] was “induced”, the IFN-β production ([7]; overnight, ELISA) was “induced” and the cell death [8] was “induced”. The IFN-β production ([8]; overnight, ELISA) was “induced”, the “antitumor activities relative to MDA5 agonist polyI:C” value ([9]; FIGS. 4A-4C) was “comparable” and the “IFN-β production by mouse pancreatic cancer cells and sarcoma” value ([9]; figure legend FIGS. 4A-4C) was “improves”. The “IFN-β production with IDO inhibitor and AHR inhibitor co-treatment compared to PRR agonist alone” value [10] was “enhanced”, the “IFN-β production by different cancer cells” value [11] was “differentially induce” and the “survival, RigantmiR-21 and anti-PD-1 antibody compared to RigantmiR-21 alone” value [12] was “significantly improved survival”. For the same molecule, the “survival, RigantmiR-21 and anti-PD-1 antibody compared to RigantmiR-21 alone” value ([12]; listed as RignatmiR-21) was “synergizes”.
